# Reference: US20100015637A1 (AbbVie / Abbott, published 2010)
# Columns and labels:
# [1] = target: CHO human PlGF-1 comprising amino acids 1-137 (human PlGF-1-His (1-131), CHO 6305) (human) (UniProt P49763); test: … sandwich, capture MAb04, detection pAb264; antigen 15 pg/mL
# [2] = target: CHO human PlGF-1 fragment (comprising amino acids 17-131; ATCC PTA-8540) (human) (UniProt P49763); test: as above
# [3] = target: human PlGF-1 comprising amino acids 1-137 produced in human embryonic kidney cells (human) (UniProt P49763); test: as above
# [4] = target: human PlGF-1 fragment (comprising amino acids 17-131) produced in human embryonic kidney cells (human) (UniProt P49763); test: as above
# [5] = target: recombinant human PlGF-1 (comprising amino acids 1-131) expressed in E. coli (R&D Systems) (human) (UniProt P49763); test: as above
# [6] = target: CHO human PlGF-1 comprising amino acids 1-137 (human PlGF-1-His (1-131), CHO 6305) (human) (UniProt P49763); test: … sandwich, capture MAb04, detection pAb264; antigen 60 pg/mL
# [7] = target: CHO human PlGF-1 fragment (comprising amino acids 17-131; ATCC PTA-8540) (human) (UniProt P49763); test: as above
# [8] = target: human PlGF-1 comprising amino acids 1-137 produced in human embryonic kidney cells (human) (UniProt P49763); test: as above
# [9] = target: human PlGF-1 fragment (comprising amino acids 17-131) produced in human embryonic kidney cells (human) (UniProt P49763); test: as above
# [10] = target: recombinant human PlGF-1 (comprising amino acids 1-131) expressed in E. coli (R&D Systems) (human) (UniProt P49763); test: as above
# [11] = target: CHO human PlGF-1 comprising amino acids 1-137 (human PlGF-1-His (1-131), CHO 6305) (human) (UniProt P49763); test: … sandwich, capture MAb04, detection pAb264; antigen 250 pg/mL
# [12] = target: CHO human PlGF-1 fragment (comprising amino acids 17-131; ATCC PTA-8540) (human) (UniProt P49763); test: as above
# [13] = target: human PlGF-1 comprising amino acids 1-137 produced in human embryonic kidney cells (human) (UniProt P49763); test: as above
# [14] = target: human PlGF-1 fragment (comprising amino acids 17-131) produced in human embryonic kidney cells (human) (UniProt P49763); test: as above
# [15] = target: recombinant human PlGF-1 (comprising amino acids 1-131) expressed in E. coli (R&D Systems) (human) (UniProt P49763); test: as above
# [16] = target: CHO human PlGF-1 comprising amino acids 1-137 (human PlGF-1-His (1-131), CHO 6305) (human) (UniProt P49763); test: … sandwich, capture MAb04, detection pAb264; antigen 750 pg/mL
# [17] = target: CHO human PlGF-1 fragment (comprising amino acids 17-131; ATCC PTA-8540) (human) (UniProt P49763); test: as above
# [18] = target: human PlGF-1 comprising amino acids 1-137 produced in human embryonic kidney cells (human) (UniProt P49763); test: as above
# [19] = target: human PlGF-1 fragment (comprising amino acids 17-131) produced in human embryonic kidney cells (human) (UniProt P49763); test: as above
# [20] = target: recombinant human PlGF-1 (comprising amino acids 1-131) expressed in E. coli (R&D Systems) (human) (UniProt P49763); test: as above
# [21] = target: CHO human PlGF-1 comprising amino acids 1-137 (human PlGF-1-His (1-131), CHO 6305) (human) (UniProt P49763); test: … sandwich, capture MAb04, detection pAb264; antigen 1500 pg/mL
# [22] = target: CHO human PlGF-1 fragment (comprising amino acids 17-131; ATCC PTA-8540) (human) (UniProt P49763); test: as above
# [23] = target: human PlGF-1 comprising amino acids 1-137 produced in human embryonic kidney cells (human) (UniProt P49763); test: as above
# [24] = target: human PlGF-1 fragment (comprising amino acids 17-131) produced in human embryonic kidney cells (human) (UniProt P49763); test: as above
# [25] = target: recombinant human PlGF-1 (comprising amino acids 1-131) expressed in E. coli (R&D Systems) (human) (UniProt P49763); test: as above
# [26] = target: CHO human PlGF-1 comprising amino acids 1-137 (human PlGF-1-His (1-131), CHO 6305) (human) (UniProt P49763); test: … sandwich, capture MAb04, detection pAb264; antigen 0 pg/mL (blank)
# [27] = target: CHO human PlGF-1 fragment (comprising amino acids 17-131; ATCC PTA-8540) (human) (UniProt P49763); test: as above
# [28] = target: human PlGF-1 comprising amino acids 1-137 produced in human embryonic kidney cells (human) (UniProt P49763); test: as above
# [29] = target: human PlGF-1 fragment (comprising amino acids 17-131) produced in human embryonic kidney cells (human) (UniProt P49763); test: as above
# [30] = target: recombinant human PlGF-1 (comprising amino acids 1-131) expressed in E. coli (R&D Systems) (human) (UniProt P49763); test: as above
# human PlGF-1 comprising amino acids 1-137 produced in human embryonic kidney cells (human), sequence (P49763 other isoform, or with tags, fused parts or gaps): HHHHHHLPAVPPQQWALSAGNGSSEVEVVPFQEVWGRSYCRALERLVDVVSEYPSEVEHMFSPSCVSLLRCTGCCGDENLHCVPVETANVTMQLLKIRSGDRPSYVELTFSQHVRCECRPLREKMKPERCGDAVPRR
# CHO human PlGF-1 comprising amino acids 1-137 (human PlGF-1-His (1-131), CHO 6305) (human), sequence (P49763 other isoform, or with tags, fused parts or gaps): as above
# CHO human PlGF-1 fragment (comprising amino acids 17-131; ATCC PTA-8540) (human), sequence (P49763 other isoform, or with tags, fused parts or gaps limits assumed): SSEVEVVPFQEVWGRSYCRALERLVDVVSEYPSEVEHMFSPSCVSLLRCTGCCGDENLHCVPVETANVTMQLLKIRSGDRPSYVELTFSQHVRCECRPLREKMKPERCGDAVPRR
# human PlGF-1 fragment (comprising amino acids 17-131) produced in human embryonic kidney cells (human), sequence (P49763 other isoform, or with tags, fused parts or gaps limits assumed): as above
substance,measurement,setting,value
"rat monoclonal antibody 04 (Rat anti-Human PlGF clone number 358932, R&D Systems)",RLU,[1],32100 RLU
same,RLU,[2],34200 RLU
same,RLU,[3],49700 RLU
same,RLU,[4],39500 RLU
same,RLU,[5],51900 RLU
same,RLU,[6],80100 RLU
same,RLU,[7],89500 RLU
same,RLU,[8],159000 RLU
same,RLU,[9],112000 RLU
same,RLU,[10],169000 RLU
same,RLU,[11],246000 RLU
same,RLU,[12],293000 RLU
same,RLU,[13],539000 RLU
same,RLU,[14],382000 RLU
same,RLU,[15],570000 RLU
same,RLU,[16],644000 RLU
same,RLU,[17],752000 RLU
same,RLU,[18],1.26e+06 RLU
same,RLU,[19],957000 RLU
same,RLU,[20],1.36e+06 RLU
same,RLU,[21],1.13e+06 RLU
same,RLU,[22],1.3e+06 RLU
same,RLU,[23],2.05e+06 RLU
same,RLU,[24],1.64e+06 RLU
same,RLU,[25],2.19e+06 RLU
same,RLU,[26],19100 RLU
same,RLU,[27],18900 RLU
same,RLU,[28],18800 RLU
same,RLU,[29],18700 RLU
same,RLU,[30],19000 RLU
